Measured values as given in US20260091061A1 (LEGEND BIOTECH IRELAND, published 2026).

T1: mouse GCC (mouse, UniProt Q3UWA6 20-1072)
T1 construct: whole, on cells; also called mGCC; HEK293T.mGCC.Luc cells
T1 sequence (looked up): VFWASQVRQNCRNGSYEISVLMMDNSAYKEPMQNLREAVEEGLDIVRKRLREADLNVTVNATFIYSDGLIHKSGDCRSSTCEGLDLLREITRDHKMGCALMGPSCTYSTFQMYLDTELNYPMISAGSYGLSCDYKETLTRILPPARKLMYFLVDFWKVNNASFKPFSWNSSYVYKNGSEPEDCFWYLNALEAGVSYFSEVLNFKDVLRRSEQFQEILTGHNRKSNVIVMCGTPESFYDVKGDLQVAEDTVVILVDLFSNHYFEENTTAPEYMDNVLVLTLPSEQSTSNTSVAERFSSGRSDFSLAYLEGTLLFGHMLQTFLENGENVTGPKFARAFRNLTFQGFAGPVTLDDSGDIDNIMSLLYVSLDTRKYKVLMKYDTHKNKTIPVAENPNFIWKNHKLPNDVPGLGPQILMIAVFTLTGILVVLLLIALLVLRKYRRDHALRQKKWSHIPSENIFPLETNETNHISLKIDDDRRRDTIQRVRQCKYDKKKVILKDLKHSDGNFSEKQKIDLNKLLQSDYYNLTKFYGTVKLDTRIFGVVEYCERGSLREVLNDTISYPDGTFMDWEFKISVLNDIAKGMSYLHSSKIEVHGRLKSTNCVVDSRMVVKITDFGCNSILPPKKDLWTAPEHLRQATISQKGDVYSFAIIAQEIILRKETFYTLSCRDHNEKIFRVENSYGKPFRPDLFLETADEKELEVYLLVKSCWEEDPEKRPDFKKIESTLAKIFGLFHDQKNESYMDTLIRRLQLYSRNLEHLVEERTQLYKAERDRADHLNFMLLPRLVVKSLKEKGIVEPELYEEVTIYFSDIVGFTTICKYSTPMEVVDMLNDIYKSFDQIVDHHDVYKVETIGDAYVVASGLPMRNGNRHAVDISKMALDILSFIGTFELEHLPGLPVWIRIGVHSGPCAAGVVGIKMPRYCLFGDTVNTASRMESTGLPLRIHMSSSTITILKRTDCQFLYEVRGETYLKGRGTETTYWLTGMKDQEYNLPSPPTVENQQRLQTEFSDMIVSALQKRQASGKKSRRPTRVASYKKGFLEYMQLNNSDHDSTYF

B1: VHHC0694H2-mIgG1Fc (Fc fusion)
chain: QVQLVESGGGVVQPGRSLRLSCAASGYTYSRYCMAWFRQAPGKEREGVAVIDPDGSTTYADSVKGRFTISQDNSKNTLYLQMNSLRAEDTAVYYCAADPRVWYGGTCRAGRTDFSNWGQGTMVTVSSVPRDCGCKPCICTVPEVSSVFIFPPKPKDVLTITLTPKVTCVVVDISKDDPEVQFSWFVDDVEVHTAQTQPREEQFNSTFRSVSELPIMHQDWLNGKEFKCRVNSAAFPAPIEKTISKTKGRPKAPQVYTIPPPKEQMAKDKVSLTCMITDFFPEDITVEWQWNGQPAENYKNTQPIMNTNGSYFVYSKLNVQKSNWEAGNTFTCSVLHEGLHNHHTEKSLSHSPGK
notes: also called humanized chimeric antibody VHHC0694H2-mIgG1Fc
B2: VHHA2322H2-mIgG1Fc (Fc fusion)
chain: QVHLVESGGGVVQPGRSLRLSCAASGYTGRRLCRGWFRQAPGKEREGVATITLSGRASYADSVKGRFTISQDNSKNTLYLQMNSLRAEDTAVYFCAEVRSADAEWLNPLKCHPDRLGLAGVDWGQGTTVTVSSVPRDCGCKPCICTVPEVSSVFIFPPKPKDVLTITLTPKVTCVVVDISKDDPEVQFSWFVDDVEVHTAQTQPREEQFNSTFRSVSELPIMHQDWLNGKEFKCRVNSAAFPAPIEKTISKTKGRPKAPQVYTIPPPKEQMAKDKVSLTCMITDFFPEDITVEWQWNGQPAENYKNTQPIMNTNGSYFVYSKLNVQKSNWEAGNTFTCSVLHEGLHNHHTEKSLSHSPGK
notes: also called humanized chimeric antibody VHHA2322H2-mIgG1Fc
B3: VHHC0708H2-mIgG1Fc (Fc fusion)
chain: EVQLVESGGGVVQPGGSLRLSCAASGYTYSRYCMGWVRQAPGKEREGVALIASDGTTTYADSVKGRFTISQDNSKNTLYLQMNSLRAEDTAVYYCAADAVNWYGSICASMIRRKNPAFGYWGQGTLVTVSSVPRDCGCKPCICTVPEVSSVFIFPPKPKDVLTITLTPKVTCVVVDISKDDPEVQFSWFVDDVEVHTAQTQPREEQFNSTFRSVSELPIMHQDWLNGKEFKCRVNSAAFPAPIEKTISKTKGRPKAPQVYTIPPPKEQMAKDKVSLTCMITDFFPEDITVEWQWNGQPAENYKNTQPIMNTNGSYFVYSKLNVQKSNWEAGNTFTCSVLHEGLHNHHTEKSLSHSPGK
notes: also called humanized chimeric antibody VHHC0708H2-mIgG1Fc
B4: VHHC0494 (VHH)
VHH: QVHLVESGGGSVQSGGSLRLSCATSASPYSMHCMGWFRQAPGKARERVASILNAGSTTYADSVKGRFTISRDNAEKTLYLQMNSLKPEDTGTYYCAARPDAGRWRSACTTELDFGYWGQGTQVTVSS
notes: Screened as E. coli culture supernatant and detected with an anti-cmyc antibody
B5: VHHA2493 (VHH)
VHH: QMQLVESGGGSVQSGGSLRLSCATNEPPYSIYCMAWFRQAPGKARERVAAILNAGGTRYADSVKGRFTISRDNAAKTFALQMNSLKPEDTGTYYCATRADAGRWGSACTTELDFGNWGQGTQVTVSS
notes: as for B4
B6: VHHC0806 (VHH)
VHH: QVHLVESGGGSVQSGGSLRLSCAGSGYTYSTHCMGWFRQAPGKERERVATIDKDGRTSHYADAVKGRFTISQDNAKNTLYLQMSSLNPEDTAMYYCAAAEHRGAWCPLWDRSAPLLAHIHWGQGTQVTVSS
notes: as for B4
B7: VHHA2322 (VHH)
VHH: QVHLVESGGGSVQSGGSLRLSCAASGYTGRRLCRGWFRQTPGKEREGVATITLSGRASYADSVKGRFTISQDNAKNTLYLQMNGLKPEDTAMYFCAEVRSADAEWLNPLKCHPDRLGLAGVDWGQGTQVTVSS
notes: as for B4
B8: VHHC0708 (VHH)
VHH: QVQLEESGGGSVQSGGSLRLSCAASGYTYSRYCMGWVRQAPGKEREGVALIASDGTTTYADSVKGRFTISQDNAKNTLYLQMNSLKPEDTAMYYCAADAVNWYGSICASMIRRKNPAFGYWGRGTQVTVSS
notes: as for B4
B9: VHHC0464 (VHH)
VHH: QVQLQESGGGLVQAGGSLRLSCLASGLAFPSYAMGWFRQAPGKEREWVSCVTRSGGDTLYADSAKGRFAISRDNAKNTLYLQMNSLKPEDTAMYYCAAALFCANLRRNKDNYWGQGTQVTVSS
notes: as for B4
B10: VHHC0467 (VHH)
VHH: QMQLVESGGGLVQAGGSLRLSCIASGLTFPTYAMGWFRQAPGKEREWVSCVTRSGGDTLYADSAKGRFTISRDNAKNTLFLQMNSLKPEDTAMYYCVAALFCHNLRLNTGNYWGQGTQVTVSS
notes: as for B4
B11: VHHC0524 (VHH)
VHH: QVQLAESGGGSVQSGGSLRLSCAASGYTYSRYCMAWFRQAPGKEREGVAVIVSDNDGSATYADSVKGRFTISQDNAKNMLYLQMNSLKPEDTAMYYCAADPRVWYGGTCRAGRTDFLYWGQGTQVTVSS
notes: as for B4
B12: VHHC0694 (VHH)
VHH: QVQLVESGGGSVQSGGSLRLSCAASGYTYSRYCMAWFRQAPGKEREGVAVIDPDGSTTYADSVKGRFTISQDNAKNTLYLQMNSLKPEDTAMYYCAADPRVWYGGTCRAGRTDFSNWGQGTQVTVSS
notes: as for B4

What follows are binders tested against T2, huGCC-his (human, UniProt P25092 24-430, limits assumed) (assay: SPR, Biacore T200; antibody captured via Fc, GCC as analyte; 1:1 model).
T2 construct: Soluble his-tagged human GCC used as analyte on Biacore; also called GCC (SPR analyte); not shown: his tag
T2 sequence (P25092 24-430 limits assumed): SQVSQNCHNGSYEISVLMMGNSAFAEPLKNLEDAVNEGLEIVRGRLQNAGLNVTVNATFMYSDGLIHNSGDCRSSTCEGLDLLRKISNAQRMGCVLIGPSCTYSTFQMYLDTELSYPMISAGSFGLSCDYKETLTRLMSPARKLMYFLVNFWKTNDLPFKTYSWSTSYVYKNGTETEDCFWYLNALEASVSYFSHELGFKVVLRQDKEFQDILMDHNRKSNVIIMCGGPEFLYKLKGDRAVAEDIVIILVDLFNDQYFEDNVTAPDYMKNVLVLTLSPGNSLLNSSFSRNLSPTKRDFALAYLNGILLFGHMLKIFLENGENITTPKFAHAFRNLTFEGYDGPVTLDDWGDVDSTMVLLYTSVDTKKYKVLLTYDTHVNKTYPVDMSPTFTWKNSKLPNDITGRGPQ

Row | Kd [nM] | Binder
1 | 1.34 | B1
2 | 1.65 | B2
3 | 1.02 | B3

Each binder was assayed against T1, mouse GCC (assay: flow cytometry on HEK293T.mGCC.Luc cells, PE goat anti-mouse IgG secondary; Binding % = cells with antibody bound / total cells).

Row | binding result | Binder
4 | no binding (tested: 1000 nM) | B1
5 | no binding (tested: 1000 nM) | B2

Each binder was assayed against T3, human GCC (human, UniProt P25092 24-1073) (assay: screen of clone supernatants: cell based ELISA on HEK293T.huGCC.Luc cells and ELISA on recombinant human GCC protein (ACRO GUC-H52H5)).
T3 construct: whole, on cells; also called huGCC; Guanylyl cyclase C
T3 sequence (P25092 24-1073): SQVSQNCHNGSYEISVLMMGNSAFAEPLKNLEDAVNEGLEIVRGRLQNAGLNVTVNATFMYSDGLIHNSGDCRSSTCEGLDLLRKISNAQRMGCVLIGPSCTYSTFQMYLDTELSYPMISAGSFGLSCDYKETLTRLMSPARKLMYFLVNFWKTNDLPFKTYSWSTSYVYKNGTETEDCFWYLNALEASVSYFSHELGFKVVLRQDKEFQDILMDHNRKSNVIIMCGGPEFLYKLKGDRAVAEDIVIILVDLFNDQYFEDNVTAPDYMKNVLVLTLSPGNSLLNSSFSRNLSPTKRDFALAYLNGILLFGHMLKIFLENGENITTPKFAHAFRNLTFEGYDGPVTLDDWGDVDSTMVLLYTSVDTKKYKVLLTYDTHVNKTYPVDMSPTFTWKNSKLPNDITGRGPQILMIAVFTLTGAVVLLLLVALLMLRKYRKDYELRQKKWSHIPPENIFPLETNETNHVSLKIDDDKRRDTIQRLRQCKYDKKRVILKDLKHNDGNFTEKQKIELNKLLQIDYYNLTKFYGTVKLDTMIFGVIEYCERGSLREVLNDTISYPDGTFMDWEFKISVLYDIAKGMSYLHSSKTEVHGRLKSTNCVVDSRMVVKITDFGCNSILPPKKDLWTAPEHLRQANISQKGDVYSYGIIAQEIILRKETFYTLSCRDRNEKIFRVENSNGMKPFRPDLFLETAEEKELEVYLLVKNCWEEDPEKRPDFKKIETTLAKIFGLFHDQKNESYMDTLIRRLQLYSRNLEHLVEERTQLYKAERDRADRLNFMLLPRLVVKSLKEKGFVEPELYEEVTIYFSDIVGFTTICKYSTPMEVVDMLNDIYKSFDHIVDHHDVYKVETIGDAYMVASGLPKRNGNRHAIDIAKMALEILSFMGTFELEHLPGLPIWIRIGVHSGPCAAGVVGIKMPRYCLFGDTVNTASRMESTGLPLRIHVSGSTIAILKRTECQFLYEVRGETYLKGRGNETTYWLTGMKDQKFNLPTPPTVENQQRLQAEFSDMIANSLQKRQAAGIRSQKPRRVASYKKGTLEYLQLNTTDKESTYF

Row | binding result | Binder
6 | binds | B4
7 | binds | B5
8 | binds | B6
9 | binds | B7
10 | binds | B8
11 | binds | B9
12 | binds | B10
13 | binds | B11
14 | binds | B12

The binders below were run against T3, human GCC (assay: flow cytometry on HEK293T.huGCC.Luc cells, percentage of binding).

Row | EC50 [nM] | Binder
15 | 0.0315 | B1
16 | 0.0192 | B2
